Target: T1, p75 neurotrophin receptor on rat embryonic motor neurons (rat, UniProt P07174 30-425)
T1 sequence (looked up): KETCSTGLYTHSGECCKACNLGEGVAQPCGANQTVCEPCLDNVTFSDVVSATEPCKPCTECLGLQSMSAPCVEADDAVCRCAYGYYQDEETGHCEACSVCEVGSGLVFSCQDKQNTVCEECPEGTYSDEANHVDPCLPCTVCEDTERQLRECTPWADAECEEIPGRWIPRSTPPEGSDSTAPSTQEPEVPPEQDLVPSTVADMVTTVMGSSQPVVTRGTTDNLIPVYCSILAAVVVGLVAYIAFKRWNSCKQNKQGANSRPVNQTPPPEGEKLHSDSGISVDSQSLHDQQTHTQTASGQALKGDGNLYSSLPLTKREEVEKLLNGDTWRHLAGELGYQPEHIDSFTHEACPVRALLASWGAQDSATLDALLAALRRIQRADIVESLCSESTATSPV
Assay: cell-based or functional assay

B1: peroxynitrite-treated NGF (mouse NGF nitrated by peroxynitrite) (ligand)
chain: SSTHPVFHMGEFSVCDSVSVWVGDKTTATDIKGKEVTVLAEVNINNSVFRQYFFETKCRASNPVESGCRGIDSKHWNSYCTTTHTFVKALTTDEKQAAWRFIRIDTACVCVLSRKATR
modifications: nitro groups on Tyr52 and Trp99 (the species identified by mass spectrometry); up to five nitro groups and methionine oxidation suggested
fold increase of apoptotic activity against native NGF: 10000 fold
